From patent US20240166765A1 (ICONIC THERAPEUTICS, published 2024)

B1: anti-TF antibody 43B1 (antibody, human IgG1, V domains shown)
VH: QVQLQESGPGLVKPSQTLSLTCTVSGGSISSGQYWSWIRQHPGKGLEWIGEIYYSGSTRYNPSLKSRVTISVDTSKNQFSLKLSSVTAADTAVYYCARDAPYYYGGGYYYYMDVWGKGTTVTVSS
VL: EIVLTQSPGTLSLSPGERATLSCRASESVDSSYLAWYQQKPGQAPRLLIYGASTRQTGIPDRFSGSGSGTDFTLTISRLEPEDFAVYYCQQAGVVPYTFGGGTKVEIK
B2: anti-TF antibody 43B7 (antibody, human IgG1, V domains shown)
VH: QVQLQESGPGLVKPSQTLSLTCTVSGGSISSGQYWSWIRQHPGKGLEWIGEIYYSGSTRYNPSLKSRVTISVDTSKNQFSLKLSSVTAADTAVYYCARDAPYYYGGGYYYYMDVWGKGTTVTVSS
VL: EIVLTQSPGTLSLSPGERATLSCRASESVDSSYLAWYQQKPGQAPRLLIYGADSRATGIPDRFSGSGSGTDFTLTISRLEPEDFAVYYCQQDGVVPYTFGGGTKVEIK
B3: anti-TF antibody 25A5 (antibody, human IgG1, kappa, V domains shown)
VH: QVQLVQSGAEVKKPGASVKVSCKASGYTFDVYGISWVRQAPGQGLEWMGWIAPYSGNTNYAQKLQGRVTMTTDTSTSTAYMELRSLRSDDTAVYYCARDAGTYSPFGYGMDVWGQGTTVTVSS
VL: DIQMTQSPSTLSASVGDRVTITCRASESISNWLAWYQQKPGKAPKLLIYKAYSLEYGVPSRFSGSGSGTEFTLTISSLQPDDFATYYCQQFQKLPPFTFGGGTKVEIKR
B4: 54E (antibody, human IgG1, V domains shown)
VH: QVQLVQSGAEVKKPGASVKVSCKASGYTFANYYMHWVRQAPGQGLEWMGIINPSGGITVYAQKFQGRVTMTRDTSTSTVYMELSSLRSEDTAVYYCARGGSKVAALAFDIWGQGTMVTVSS
VL: DIQMTQSPSSLSASVGDRVTITCQASQDISNSLNWYQQKPGKAPKLLIYDASNLETGVPSRFSGSRSGTDFTFTISSLQPEDIATYYCQQYNFHPLTFGGGTKVEIK
B5: 29E (antibody, human IgG1, V domains shown)
VH: QVQLVESGGGVVQPGRSLRLSCAASGFTFRSYGMHWVRQAPGKGLEWVAVITYDGINKYYADSVEGRFTISRDNSKNTLYLQMNSLRAEDTAVYYCARDGVYYGVYDYWGQGTLVTVSS
VL: not shown
B6: TF-011 (antibody, V domains shown)
VH: EVQLLESGGGLVQPGGSLRLSCAASGFTFSNYAMSWVRQAPGKGLEWVSSISGSGDYTYYTDSVKGRFTISRDNSKNTLYLQMNSLRAEDTAVYYCARSPWGYYLDSWGQGTLVTVSS
VL: DIQMTQSPPSLSASAGDRVTITCRASQGISSRLAWYQQKPEKAPKSLIYAASSLQSGVPSRFSGSGSGTDFTLTISSLQPEDFATYYCQQYNSYPYTFGQGTKLEIK
B7: 39A (antibody, human IgG1, V domains shown)
VH: QVQLVQSGAEVKKPGSSVKVSCKASGGTFSSNAIGWVRQAPGQGLEWMGSIIPIIGFANYAQKFQGRVTITADESTSTAYMELSSLRSEDTAVYYCARDSGYYYGASSFGMDVWGQGTTVTVSS
VL: EIVMTQSPATLSVSPGERATLSCRASQSVSSNLAWYQQKPGQAPRLLIYGASTRATGIPARFSGSGSGTEFTLTISSLQSEDFAVYYCEQYNNLPLTFGGGTKVEIK
B8: 5G9 (humanized TF8-5G9, CNTO 860) (antibody, V domains shown)
VH: QVQLVESGGGVVQPGRSLRLSCKASGFNIKDYYMHWVRQAPGKGLEWIGLIDPENGNTIYDPKFQGRFTISADNSKNTLFLQMDSLRPEDTAVYYCARDNSYYFDYWGQGTPVTVSS
VL: DIQMTQSPSSLSASVGDRVTITCKASQDIRKYLNWYQQKPGKAPKLLIYYATSLADGVPSRFSGSGSGTDYTFTISSLQPEDIATYYCLQHGESPYTFGQGTKLEIT
B9: 43B (antibody, V domains shown)
VH: QVQLQESGPGLVKPSQTLSLTCTVSGGSISSGQYWSWIRQHPGKGLEWIGEIYYSGSTRYNPSLKSRVTISVDTSKNQFSLKLSSVTAADTAVYYCARDAPYYYGGGYYYYMDVWGKGTTVTVSS
VL: EIVLTQSPGTLSLSPGERATLSCRASQSVSSSYLAWYQQKPGQAPRLLIYGASSRATGIPDRFSGSGSGTDFTLTISRLEPEDFAVYYCQQVGVVPYTFGGGTKVEIK
B10: 43B7 (antibody, V domains shown)
VH: QVQLQESGPGLVKPSQTLSLTCTVSGGSISSGQYWSWIRQHPGKGLEWIGEIYYSGSTRYNPSLKSRVTISVDTSKNQFSLKLSSVTAADTAVYYCARDAPYYYGGGYYYYMDVWGKGTTVTVSS
VL: EIVLTQSPGTLSLSPGERATLSCRASESVDSSYLAWYQQKPGQAPRLLIYGADSRATGIPDRFSGSGSGTDFTLTISRLEPEDFAVYYCQQDGVVPYTFGGGTKVEIK
B11: 25G1 (antibody, human IgG1, kappa, V domains shown)
VH: QVQLVQSGAEVKKPGASVKVSCKASGYTFRSYGISWVRQAPGQGLEWMGWVAPYSGNTNYAQKLQGRVTMTTDTSTSTAYMELRSLRSDDTAVYYCARDAGTYSPYGYGMDVWGQGTTVTVSS
VL: DIQMTQSPSTLSASVGDRVTITCRASHSIDSWLAWYQQKPGKAPKLLIYKASYLESGVPSRFSGSGSGTEFTLTISSLQPDDFATYYCQLFQSLPPFTFGGGTKVEIKR
B12: 25A3 (antibody, human IgG1, kappa, V domains shown)
VH: QVQLVQSGAEVKKPGASVKVSCKASGYTFDVYGISWVRQAPGQGLEWMGWIAPYSGNTNYAQKLQGRVTMTTDTSTSTAYMELRSLRSDDTAVYYCARDAGTYSPFGYGMDVWGQGTTVTVSS
VL: DIQMTQSPSTLSASVGDRVTITCQASQSINNWLAWYQQKPGKAPKLLIYKAYNLESGVPSRFSGSGSGTEFTLTISSLQPDDFATYYCQLFQSLPPFTFGGGTKVEIKR
B13: 25G9 (antibody, human IgG1, kappa, V domains shown)
VH: QVQLVQSGAEVKKPGASVKVSCKASGYTFRSYGISWVRQAPGQGLEWMGWVAPYSGNTNYAQKLQGRVTMTTDTSTSTAYMELRSLRSDDTAVYYCARDAGTYSPYGYGMDVWGQGTTVTVSS
VL: DIQMTQSPSTLSASVGDRVTITCQASQSIDSWLAWYQQKPGKAPKLLIYSASYLESGVPSRFSGSGSGTEFTLTISSLQPDDFATYYCQRFQSLPPFTFGGGTKVEIKR
B14: 25A5 (antibody, human IgG1, kappa, V domains shown)
VH: QVQLVQSGAEVKKPGASVKVSCKASGYTFDVYGISWVRQAPGQGLEWMGWIAPYSGNTNYAQKLQGRVTMTTDTSTSTAYMELRSLRSDDTAVYYCARDAGTYSPFGYGMDVWGQGTTVTVSS
VL: DIQMTQSPSTLSASVGDRVTITCRASESISNWLAWYQQKPGKAPKLLIYKAYSLEYGVPSRFSGSGSGTEFTLTISSLQPDDFATYYCQQFQKLPPFTFGGGTKVEIKR

Target: human Tissue Factor (hTF), endogenously expressed on human TF-positive cells (human, UniProt P13726 33-295)
Test: cell-based or functional assay

Binder	% GM-CSF, 2.56 nM antibody, MDA-MB-231 cells + FVIIa	% GM-CSF, 6.4 nM antibody, MDA-MB-231 cells + FVIIa
B1	50%	16%
B2	50%	17%
B3	72%	18%

Target: Relipidated TF (UniProt P13726 33-295, limits assumed)
Test: cell-based or functional assay

Binder	% ETP, TGA 10 min pre-incubation, 10 nM Ab	% Peak IIa, TGA […] min pre-incubation, 10 nM Ab	% Peak IIa, TGA […] min pre-incubation, 50 nM Ab	% Peak IIa, TGA […] min pre-incubation, 100 nM Ab	% ttPeak, TGA 10 min pre-incubation, 10 nM Ab	% ttPeak, TGA 10 min pre-incubation, 50 nM Ab	% ttPeak, TGA 10 min pre-incubation, 100 nM Ab	ETP, TGA 10 min pre-incubation, 10 nM Ab	Lag Time, TGA 10 min pre-incubation, 10 nM Ab	Lag Time, TGA 10 min pre-incubation, 50 nM Ab
B4	83%	43%	16%	13%	96%	303%	371%	1520 nM·min	6.5 min	18.3 min
B5	77%	36%	30%	28%	159%	237%	247%	1410 nM·min	9.4 min	14.1 min
B6	–	–	10%	–	–	–	–	–	–	–
B7	0%	13%	8%	7%	319%	491%	537%	–	19.6 min	30.7 min
B8	–	11%	8%	8%	314%	386%	436%	–	19.3 min	23.6 min

Same assay, conditions: not given

Binder	Lag Time, TGA 10 min pre-incubation, 100 nM Ab	Peak IIa, TGA […] min pre-incubation, 10 nM Ab	Peak IIa, TGA […] min pre-incubation, 50 nM Ab	Peak IIa, TGA […] min pre-incubation, 100 nM Ab	ttPeak, TGA 10 min pre-incubation, 10 nM Ab	ttPeak, TGA 10 min pre-incubation, 50 nM Ab	ttPeak, TGA 10 min pre-incubation, 100 nM Ab	% ETP, TGA 10 min pre-incubation, 50 nM Ab	% ETP, TGA 10 min pre-incubation, 100 nM Ab	ETP, TGA 10 min pre-incubation, 50 nM Ab
B4	22.3 min	121 nM	44 nM	37 nM	13.7 min	28.2 min	33 min	–	–	–
B5	14.7 min	98 nM	83 nM	76 nM	18.1 min	23.6 min	24.3 min	72%	66%	1300 nM·min
B7	33.6 min	36 nM	22 nM	19 nM	29.3 min	41.4 min	44.6 min	–	–	–
B8	26.7 min	30 nM	23 nM	22 nM	29 min	34 min	37.5 min	–	–	–

Same assay, conditions: not given

Binder	ETP, TGA 10 min pre-incubation, 100 nM Ab
B5	1200 nM·min

Target: human Tissue Factor on MDA-MB-231 cells (human, UniProt P13726 33-295)
Test: cell-based or functional assay

Binder	% IL8, 2.56 nM Ab	% IL8, 16 nM Ab	% IL8, 40 nM Ab	% IL8, 100 nM Ab	% IL8, 6.4 nM Ab
B9	50%	5%	4%	4%	–
B10	55%	8%	4%	4%	15%
B11	46%	9%	8%	9%	12%
B12	47%	8%	8%	8%	9%
B13	51%	15%	14%	13%	–
B14	70%	7%	7%	–	–
